Test results from patent US20190201542A1 (AbbVie / Abbott, published 2019).
Changes are numbered by the printed parent chain.

T1: human DLL3 (human, UniProt Q9NYJ7 27-492, limits assumed)
T1 construct: also called hDLL3; DLL3 protein
T1 sequence: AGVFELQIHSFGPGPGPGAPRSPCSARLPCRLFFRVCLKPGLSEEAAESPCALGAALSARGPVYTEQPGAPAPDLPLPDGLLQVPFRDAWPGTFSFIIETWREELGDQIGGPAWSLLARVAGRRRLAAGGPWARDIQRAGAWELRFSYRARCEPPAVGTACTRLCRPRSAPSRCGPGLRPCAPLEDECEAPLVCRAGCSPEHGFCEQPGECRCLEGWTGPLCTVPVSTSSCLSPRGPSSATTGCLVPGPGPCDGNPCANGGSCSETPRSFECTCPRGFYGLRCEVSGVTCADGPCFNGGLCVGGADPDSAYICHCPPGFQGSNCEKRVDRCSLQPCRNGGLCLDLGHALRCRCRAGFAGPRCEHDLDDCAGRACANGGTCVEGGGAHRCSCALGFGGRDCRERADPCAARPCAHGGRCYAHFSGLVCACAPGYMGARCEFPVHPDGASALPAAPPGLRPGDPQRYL

B1: SC16.110 (antibody, V domains shown)
VH: EVQLQQSGPGLVRTGASVKISCKASGYSFTGYYMHWVKQSHGKSLEWIGYISCYNGATTYNQNFKGKATFIVDTSSSTAYMQFNSLTSEDSAVYYCARSDGGHAMDYWGQGTSVTVSS
VL: NIVMTQTPKFLLVSAGDRVTITCKASQSVSNDVAWYQQKPGQSPKLLIYYASNRYTGVPDRFTGSGYGTDFTFTISTVQAEDLAVYFCQQDYSSPPTFGGGTKLEIK
notes: murine mAb
B2: SC16.122 (antibody, V domains shown)
VH: EVQLVESGGGLVKPGGSLKLSCAASGFTFSDYYMFWVRQTPEKRLEWVATISDGGSYTYFPDSVKGRFTISRDNAQNNLYLQMSSLKSEDTAMYYCARAGTLYAMDYWGQGTSVTVSS
VL: DIVMTQSQKFMSTSVGDRVSVTCKASQNVGTNVAWYQQKPGQSPKVLIYSASYRYSGVPDRFTGSGSGTDFTLTISNVQSEDLAEFFCQQYNSYPLTFGGGTKLEIK
notes: murine mAb
B3: SC16.116 (antibody, V domains shown)
VH: QVQLKQSGPGRVQPSQSLSITCTVSGFSLTSNGVHWVRQSPGKGLEWLGVLWSGGSTDYNAAFISRLSISKDNYKSQVFFKMNSLQANDTAIYYCARNNNRYGAMDYWGQGTSVTVSS
VL: DIVMTQSPSSLTVTAGEKVTMSCTSSQSLLTSGNQKNYLTWYQQKPGQPPKLLIYWASTRESGVPDRFTGSGSGTDFTLTISSLQAEDLAVYYCQNDYSLTFGAGTKLELK
notes: murine mAb
B4: SC16.121 (antibody, V domains shown)
VH: EVQLVESGGGLVQPKGSLKLSCAASGFTFNTYAMNWVRQAPGKGLEWVARIRIKSNNYATYYADSVKDRFTISRDDSQNMLYLQMNNLKTEDTAVYYCVRQGYSYDWGPWFAYWGQGTLVTVSA
VL: QIVLTQSPAIMSASPGEKVTITCSASSSVSYMHWFQQKPGTSPKLWIYSTSNLASGVPARFSGSGSGTSYSLTISRMEAEDAATYYCQQRSSYPPTFGGGTKLEIK
notes: murine mAb
B5: SC16.113 (antibody, V domains shown)
VH: DVKLVESGGGLVKPGGSLKLSCAASGFTFSSYTMSWVRQTPEKRLEWVATISSGGSYPYYPDSVKGRFTISRDNAKNTLYLQMSSLKSEDTAMYYCTRDVYDGYSYWGQGTTLTVSS
VL: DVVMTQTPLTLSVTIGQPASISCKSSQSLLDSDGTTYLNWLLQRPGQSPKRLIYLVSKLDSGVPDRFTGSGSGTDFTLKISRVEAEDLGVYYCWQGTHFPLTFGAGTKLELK
notes: murine mAb
B6: SC16.115 (antibody, V domains shown)
VH: B5 VH
VL: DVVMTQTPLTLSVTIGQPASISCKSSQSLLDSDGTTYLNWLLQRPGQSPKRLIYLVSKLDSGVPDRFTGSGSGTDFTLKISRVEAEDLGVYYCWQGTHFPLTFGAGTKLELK
notes: murine mAb
B7: SC16.10 (antibody, V domains shown)
VH: QVTLKESGPGILQSSQTLSLTCSFSGFSLSTSGMGVGWIRQPSGKGLEWLAHIWWDDVKRYNPVLKSRLTISKDTSSSQVFLKIASVDTADTATYYCARLVDDLYYFDYWGQGTTLTVSS
VL: QIVLTQSPAIMSASLGERVTMTCTASSSVSSSYLHWYQQKPGSSPKLWIYSTSNLASGVPTRFSGSGSGTSYSLTISSMEAEDAATYYCHQYHRSPFTFGSGTKLEIK
notes: murine mAb
B8: SC16.123 (antibody, V domains shown)
VH: QVALKESGPGILQPSQTLSLTCSFSGFSLSTSGMGVGWIRQPSGKGLEWLAHIWWDDVKRYNPALKSRLTISKDTSSSQVFLKIASVDTADTATYYCARMEDYGSSSYFDFWGHGTTLTVSS
VL: B7 VL with T61A, A81T
notes: murine mAb
B9: SC16.106 (antibody, V domains shown)
VH: QVQLKQSGPGLVAPSQSLFITCTVSGFSLTSYEINWVRQPPGKGLEWLGVIWTGGSTNYNSALISRLSISKDNSKSLVFLKMNSLQTDDTAIYYCVRGVYAMDYWGQGTSVTVSS
VL: DIKMTQSPSSMYASLGERVTITCKASQDINSYLSWFQQKPGKSPKTLIYRANRLVDGVPSRFSGSGSGQDYSLTISSLEYEDMGIYYCLQYDEFPFTFGSGTKLEIK
notes: murine mAb
B10: SC16.114 (antibody, V domains shown)
VH: EVQLQQSGAELVKPGASVKLSCTASGFNIKDTYIHWVKQRPEQGLEWIGRIDPANGNTKYDPKFQGKATITPDTSSNTAYLQLSSLTSEDTAVYYCARSWRNYGSSFWYFDVWGAGTTVTVSS
VL: QIVLSQSPAILSASPGEKVTMTCRASSSVSYMHWYQQKPGSSPKPWIYATSNLASGVPARFSGSGSGTSYSLTISRVEAEDAATYYCQQWSSNPYTFGGGTKLEIK
notes: murine mAb
B11: SC16.124 (antibody, V domains shown)
VH: EVQLQQSGPELVKPGASVKMSCKASGYTFTSYVMHWVKQKPGQGLEWIGYINPYNDGTKYNEKFKGKATLTSDKSSSTAYMELSSLTSEDSAVYYCARGALYYGNYLGYFDVWGAGTTVTVSS
VL: DIQMTQSPASQSASLGESVTITCLASQTIGTWLAWYQQKPGKSPQLLISAATSLADGVPSRFSGSGSGTKFSFKISSLQAEDFVSYYCQQLYSTPWTFGGGTKLEIK
notes: murine mAb
B12: SC16.132 (antibody, V domains shown)
VH: QVQLKESGPGLVAPSQSLSITCTVSGFSLTDYGVSWIRQPPGKGLEWLGVVWGGGSTYYNSALKSRLSITKDNSKSQVFLKMNSLQTDDTAMYYCAKQRGQYGAYWGQGTLVTVSA
VL: B11 VL with S49Y
notes: murine mAb
B13: SC16.129 (antibody, V domains shown)
VH: B12 VH with V51I, T70S, K81E, M82L, M92I, Q98H, R99Y, Q101H, G103A
VL: B11 VL with S49Y, W96Y
notes: murine mAb
B14: SC16.111 (antibody, V domains shown)
VH: EVQLQQSGPELEKPGASVKISCKASGYSFTGYNMNWVKQSNGKSLEWIGNIDPYYGGSSYKQKFEGKATLTVDKSSSTAYMQLKSLTSEDSAVYYCARGGSNFFDYWGQGTTLTVSS
VL: DIQMTQSPASLAASVGETVTITCRASENIYYSLAWYQQKQGKSPQLLIYNANSLEDGVPSRFSGSGSGTQYSMKINSMQPEDTATYFCKQTYDVPLTFGAGTKLELK
notes: murine mAb
B15: SC16.118 (antibody, V domains shown)
VH: EVQLQQSGPDLVKPGASVKISCKASGYSFTGYYMHWVKQSHGKSLEWIGRVNPNNGGTSYNQKFKGKAILTADKSSSTAYMELRSLTSEDSAVYYCARGSYDYAEGWGQGTLVTVSA
VL: DIVLTQSPASLAVSLGQRATISCKASQSVDYDGDSYLTWYQQKPGQPPKLLIYAASNLESGIPARFSGSGSGTDFTLNIHPVEEEDAATYYCQQSNEDPYTFGGGTKLEIK
notes: murine mAb
B16: SC16.134 (antibody, V domains shown)
VH: B15 VH with S44R, S59N, A72V, Y103N
VL: B15 VL with Y31H, D32A, L37M, T38N
notes: murine mAb
B17: SC16.107 (antibody, V domains shown)
VH: EVQLQQSGPELVKPGASVKMSCKASGYTFTNYVMHWVKQKPGQGLEWIGYINPYNDGTKYNEKFKGKATLTSDKSSTTAYMALSSLTSEDSAVYYCAVAYYSNWGFAYWGQGTLVTVSA
VL: DIVMTQSHKFMSTSVGDRVSITCKASQDVNTAVGWYQQKPGQSPKLLIYSASYRYTGVPDRFTGSGSGTDFTFTISSVQAEDLAVYYCQQHYSSPYTFGGGTKVEIK
notes: murine mAb
B18: SC16.139 (antibody, V domains shown)
VH: B17 VH
VL: B17 VL with V104L
notes: murine mAb
B19: SC16.109 (antibody, V domains shown)
VL: QIVLTQSPAIMSASPGEKVTMTCSASSSVSYMYWYQQKPGSSPRLLIYDTSNLASGVPVRFSGSGSGTSFSLTISRMEAEDTATYYCQEWSGNPLTFGDGTKLELK
V domain: QIQLVQSGPELKKPGETVKISCKASGYTFTNYGMNWVKQAPGKGLKWMGWINTYTGEPAYADDFKGRFAFSLETSASAAYLQINNLKNEDTATFFCANMRPTRGFAYWGQGTLGTVSA
notes: murine mAb
B20: SC16.11 (antibody, V domains shown)
VH: QIQLVQSGPELKKPGETVKISCKASGYTFTDYSMHWVKQAPGKGLKWMGWINTETVEPTYADDFMGRFAFSLETSASTAFLQINNLENEDTATYFCARFGSYAMDYWGQGTSVTVSS
VL: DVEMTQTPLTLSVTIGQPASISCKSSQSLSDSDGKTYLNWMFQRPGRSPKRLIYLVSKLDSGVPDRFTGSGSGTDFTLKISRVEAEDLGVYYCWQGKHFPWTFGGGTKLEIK
notes: murine mAb
B21: SC16.117 (antibody, V domains shown)
VH: QVQLKESGPGLVAPSQSLSITCTVSGFSLTNYGVHWVRQPPGKGLEWLGVIWAGGITNYNSALMSRLSISEDNSKSQVFLKMNSLQTDDTAMYYCARNLGPYAMDYWGQGTSVTVSS
VL: DIQMNQSPSSLSASLGDTITITCHVSQNINVWLSWYQQKPGNIPKLLIQKASNLHTGVPSRFSGSGSGTGFTLTISSLQPEDIATYYCQQGQSYPFTFGSGTKLEIK
notes: murine mAb
B22: SC16.126 (antibody, V domains shown)
VH: QVQMKESGPGLVAPSQSLSITCTVSGSSLTNYGVHWVRQPPGKGLEWLGVIWAGGSTNYNSALMSRLSISKDNSKSQVFLKMNSLQTDDTAMYYCARDWEGWFAYWGQGTLVTVSA
VL: B21 VL with V25A, Q49Y
notes: murine mAb
B23: SC16.149 (antibody, V domains shown)
VH: B22 VH with M4L, T23A, S27F, N31S, Y32F, N60Y, K71I
VL: B21 VL with V25A, Q49Y, N53H, F62L, K103T
notes: murine mAb

These binders were tested against T1, human DLL3 (assay: screen on immobilized hDLL3 or h293-hDLL3 cells).
How it was run: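 Hybridoma supernatants from single cells of mice immunized with human DLL3 were screened after 10 days in culture. Binding by flow cytometry was scored positive when above the control. In the solid-phase ELISA, plates coated with DLL3-His at 0.5 μg/ml were probed with HRP anti-mouse IgG and TMB and read at OD 450.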

Row | Binder | binding result
1 | B1 | binds
2 | B2 | binds
3 | B3 | binds
4 | B4 | binds
5 | B5 | binds
6 | B6 | binds
7 | B7 | binds
8 | B8 | binds
9 | B9 | binds
10 | B10 | binds
11 | B11 | binds
12 | B12 | binds
13 | B13 | binds
14 | B14 | binds
15 | B15 | binds
16 | B16 | binds
17 | B17 | binds
18 | B18 | binds
19 | B19 | binds
20 | B20 | binds
21 | B21 | binds
22 | B22 | binds
23 | B23 | binds
